Drawing on article PMC8861093 (2022), this text covers Kd for one molecule.

The assay has as its target WDR5 (Homo sapiens, UniProt P61964). The assay can be described thus: biolayer interferometry. In general terms: Biolayer interferometry detects binding as a change in optical thickness at a sensor tip.

As usually defined, the Kd is the constant that tells how readily two partners part at equilibrium. Molecule LNPHGAARAEVYLR [MLL4Win] registered a Kd of 460 nM.
